Columns and labels:
Assay in all cases: cell-based or functional assay
[1] = target: hemagglutinin (HA) of H1N1 virus strain A/Auckland/65/2001 (influenza A virus H1N1, A/Auckland/65/2001)
[2] = target: hemagglutinin (HA) of H1N1 virus strain A/Bangkok/163/2000 (influenza A virus H1N1, A/Bangkok/163/2000)
[3] = target: hemagglutinin (HA) of H1N1 virus strain A/Beijing/262/1995 (influenza A virus H1N1, A/Beijing/262/1995)
[4] = target: hemagglutinin (HA) of H1N1 virus strain A/Brisbane/59/2007 (influenza A virus H1N1, A/Brisbane/59/2007)
[5] = target: hemagglutinin (HA) of H1N1 virus strain A/Canada/59/2004 (influenza A virus H1N1, A/Canada/59/2004)
[6] = target: hemagglutinin (HA) of H1N1 virus strain A/Chile/8885/2001 (influenza A virus H1N1, A/Chile/8885/2001)
[7] = target: hemagglutinin (HA) of H1N1 virus strain A/Florida/2/1993 (influenza A virus H1N1, A/Florida/2/1993)
[8] = target: hemagglutinin (HA) of H1N1 virus strain A/Fujian/156/2000 (influenza A virus H1N1, A/Fujian/156/2000)
[9] = target: hemagglutinin (HA) of H1N1 virus strain A/Johannesburg/159/1997 (influenza A virus H1N1, A/Johannesburg/159/1997)
[10] = target: hemagglutinin (HA) of H1N1 virus strain A/Kawasaki/6/1986 (influenza A virus H1N1, A/Kawasaki/6/1986)
[11] = target: hemagglutinin (HA) of H1N1 virus strain A/Moscow/13/1998 (influenza A virus H1N1, A/Moscow/13/1998)
[12] = target: hemagglutinin (HA) of H1N1 virus strain A/Neimenggu/52/2002 (influenza A virus H1N1, A/Neimenggu/52/2002)
[13] = target: hemagglutinin (HA) of H1N1 virus strain A/New Caledonia/22/1999 (influenza A virus H1N1, A/New Caledonia/22/1999)
[14] = target: hemagglutinin (HA) of H1N1 virus strain A/Ostrava/801/1998 (influenza A virus H1N1, A/Ostrava/801/1998)
[15] = target: hemagglutinin (HA) of H1N1 virus strain A/Shanghai/2/1997 (influenza A virus H1N1, A/Shanghai/2/1997)
[16] = target: hemagglutinin (HA) of H1N1 virus strain A/Shengzhen/227/1995 (influenza A virus H1N1, A/Shengzhen/227/1995)
[17] = target: hemagglutinin (HA) of H1N1 virus strain A/Solomon islands/03/2006, on virus (influenza A virus H1N1, A/Solomon Islands/03/2006)
[18] = target: hemagglutinin (HA) of H1N1 virus strain A/USSR/90/1977 (influenza A virus H1N1, A/USSR/90/1977)

mAb CH65, recombinant intact IgG1 (antibody)
mAb minimum effective concentration (EC99, microneutralization on MDCK cells) [1]: 0.195 µg/mL
mAb minimum effective concentration (EC99, microneutralization on MDCK cells) [2]: 0.195 µg/mL
mAb minimum effective concentration (EC99, microneutralization on MDCK cells) [3]: 0.098 µg/mL
mAb minimum effective concentration (EC99, microneutralization on MDCK cells) [4]: 0.098 µg/mL
mAb minimum effective concentration (EC99, microneutralization on MDCK cells) [5]: 0.098 µg/mL
mAb minimum effective concentration (EC99, microneutralization on MDCK cells) [6]: 0.195 µg/mL
mAb minimum effective concentration (EC99, microneutralization on MDCK cells) [7]: 0.012 µg/mL
mAb minimum effective concentration (EC99, microneutralization on MDCK cells) [8]: 0.488 µg/mL
mAb minimum effective concentration (EC99, microneutralization on MDCK cells) [9]: 0.098 µg/mL
mAb minimum effective concentration (EC99, microneutralization on MDCK cells) [10]: 0.098 µg/mL
mAb minimum effective concentration (EC99, microneutralization on MDCK cells) [11]: 0.012 µg/mL
mAb minimum effective concentration (EC99, microneutralization on MDCK cells) [12]: 0.098 µg/mL
mAb minimum effective concentration (EC99, microneutralization on MDCK cells) [13]: 0.391 µg/mL
mAb minimum effective concentration (EC99, microneutralization on MDCK cells) [14]: 12.5 µg/mL
mAb minimum effective concentration (EC99, microneutralization on MDCK cells) [15]: 0.195 µg/mL
mAb minimum effective concentration (EC99, microneutralization on MDCK cells) [16]: 0.012 µg/mL
mAb minimum effective concentration (EC99, microneutralization on MDCK cells) [17]: 0.024 µg/mL
mAb minimum effective concentration (EC99, microneutralization on MDCK cells) [18]: 100 µg/mL

mAb CH67 (antibody)
mAb minimum effective concentration (EC99, microneutralization on MDCK cells) [1]: 0.098 µg/mL
mAb minimum effective concentration (EC99, microneutralization on MDCK cells) [2]: 0.098 µg/mL
mAb minimum effective concentration (EC99, microneutralization on MDCK cells) [3]: 0.098 µg/mL
mAb minimum effective concentration (EC99, microneutralization on MDCK cells) [4]: 0.98 µg/mL
mAb minimum effective concentration (EC99, microneutralization on MDCK cells) [5]: 0.098 µg/mL
mAb minimum effective concentration (EC99, microneutralization on MDCK cells) [6]: 0.098 µg/mL
mAb minimum effective concentration (EC99, microneutralization on MDCK cells) [7]: 0.012 µg/mL
mAb minimum effective concentration (EC99, microneutralization on MDCK cells) [8]: 0.049 µg/mL
mAb minimum effective concentration (EC99, microneutralization on MDCK cells) [9]: 0.39 µg/mL
mAb minimum effective concentration (EC99, microneutralization on MDCK cells) [10]: 0.39 µg/mL
mAb minimum effective concentration (EC99, microneutralization on MDCK cells) [11]: 0.012 µg/mL
mAb minimum effective concentration (EC99, microneutralization on MDCK cells) [12]: 0.098 µg/mL
mAb minimum effective concentration (EC99, microneutralization on MDCK cells) [13]: 0.195 µg/mL
mAb minimum effective concentration (EC99, microneutralization on MDCK cells) [15]: 0.195 µg/mL
mAb minimum effective concentration (EC99, microneutralization on MDCK cells) [16]: 0.024 µg/mL
mAb minimum effective concentration (EC99, microneutralization on MDCK cells) [17]: 0.098 µg/mL
mAb minimum effective concentration (EC99, microneutralization on MDCK cells) [18]: 25 µg/mL
